{"source": "paper PMC5771957", "molecular_target": "T1, CCDC103 (wildtype), N-terminal His10 tagged (H. sapiens), Q8IW40", "T1 chain": "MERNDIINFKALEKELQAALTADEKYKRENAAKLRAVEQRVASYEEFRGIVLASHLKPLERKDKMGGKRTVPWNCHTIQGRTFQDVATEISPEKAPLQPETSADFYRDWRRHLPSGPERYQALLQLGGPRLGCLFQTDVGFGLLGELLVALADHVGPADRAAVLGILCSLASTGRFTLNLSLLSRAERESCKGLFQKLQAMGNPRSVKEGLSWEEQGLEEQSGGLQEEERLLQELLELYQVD", "test": "SEC", "settings": "remark: other sources report otherwise", "data": [{"binder": "CCDC103 (wildtype), N-terminal His10 tagged, Q8IW40 1-242 (natural protein) MERNDIINFKALEKELQAALTADEKYKRENAAKLRAVEQRVASYEEFRGIVLASHLKPLERKDKMGGKRTVPWNCHTIQGRTFQDVATEISPEKAPLQPETSADFYRDWRRHLPSGPERYQALLQLGGPRLGCLFQTDVGFGLLGELLVALADHVGPADRAAVLGILCSLASTGRFTLNLSLLSRAERESCKGLFQKLQAMGNPRSVKEGLSWEEQGLEEQSGGLQEEERLLQELLELYQVD", "values": [{"measurement": "stoichiometry N", "result": 2}]}]}
